Among the data in the supplement of paper PMC10567573 are protein stability index values, retold here.

Sequences and labels used below:
B1: CCND1 (parent)
chain: PEAEENKQIIRKHAQTFVALCATD
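Also: lentivirally expressed fusions sorted by FACS into six bins by GFP to DsRed ratio, PSI derived from sequencing read proportions per bin multiplied by bin number.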

In this data set the parent is B1. Briefly: protein stability index of a GFP-peptide fusion (GPS, HEK-293T) (PSI 1-6); higher = more stable. To be noted: c terminus: a fixed tail appended.
PEAEENKQIIRKHAQTFFALCATD [V18F]: the protein stability index was determined as 4.28.

PEAEENKQIIRKHAQTFQALCATD [V18Q]: the protein stability index was 4.29.

For the variant PEAEENKQIIRKHAQTFKALCATD [V18K], the protein stability index was determined as 5.09.

With PEAEENKQIIRKHAQTFNALCATD [V18N], the protein stability index stood at 4.61.

For PEAEENKQIIRKHAQTFIALCATD [V18I], the protein stability index came out at 4.42.

With PEAEENKQIIRKHAQTFDALCATD [V18D], the protein stability index stood at 5.34.

On to PEAEENKQIIRKHAQTFPALCATD [V18P], for which the protein stability index is 5.04.

Turning to PEAEENKQIIRKHAQTFGALCATD [V18G], the protein stability index was determined as 4.55.

Regarding PEAEENKQIIRKHAQTFSALCATD [V18S], the protein stability index came to 4.49.

Take PEAEENKQIIRKHAQTFEALCATD [V18E]: the protein stability index was determined as 5.09.

PEAEENKQIIRKHAQTFYALCATD [V18Y]: the protein stability index came to 3.75.

In the case of PEAEENKQIIRKHAQTFMALCATD [V18M], the protein stability index came to 4.35.

PEAEENKQIIRKHAQTFHALCATD [V18H]: the protein stability index was 4.7.

On to PEAEENKQIIRKHAQTFLALCATD [V18L], for which the protein stability index was determined as 4.49.

Regarding PEAEENKQIIRKHAQTFRALCATD [V18R], the protein stability index came to 3.87.

As for PEAEENKQIIRKHAQTFCALCATD [V18C], the protein stability index turned out to be 3.72.

For PEAEENKQIIRKHAQTFTALCATD [V18T], the protein stability index came out at 3.96.

With PEAEENKQIIRKHAQTFAALCATD [V18A], the protein stability index came to 3.77.

For PEAEENKQIIRKHAQTFWALCATD [V18W], the protein stability index is 3.76.

Regarding PEAEENKQIIRKNAQTFVALCATD [H13N], the protein stability index was 2.53.

In the case of PEAEENKQIIRKIAQTFVALCATD [H13I], the protein stability index was determined as 1.87.

Consider PEAEENKQIIRKVAQTFVALCATD [H13V], for which the protein stability index stood at 3.02.

As for PEAEENKQIIRKYAQTFVALCATD [H13Y], the protein stability index worked out at 2.59.

Consider PEAEENKQIIRKCAQTFVALCATD [H13C], for which the protein stability index was 2.65.

For PEAEENKQIIRKQAQTFVALCATD [H13Q], the protein stability index was 3.4.

For PEAEENKQIIRKMAQTFVALCATD [H13M], the protein stability index was determined as 2.89.

Consider PEAEENKQIIRKLAQTFVALCATD [H13L], for which the protein stability index came to 2.81.

In the case of PEAEENKQIIRKRAQTFVALCATD [H13R], the protein stability index was found to be 2.9.

As for PEAEENKQIIRKAAQTFVALCATD [H13A], the protein stability index came out at 3.11.

As for PEAEENKQIIRKFAQTFVALCATD [H13F], the protein stability index was 2.55.

Take PEAEENKQIIRKEAQTFVALCATD [H13E]: the protein stability index was determined as 3.7.

Turning to PEAEENKQIIRKGAQTFVALCATD [H13G], the protein stability index came out at 3.84.

Regarding PEAEENKQIIRKSAQTFVALCATD [H13S], the protein stability index was 2.54.

On to PEAEENKQIIRKPAQTFVALCATD [H13P], for which the protein stability index was determined as 3.17.

Turning to PEAEENKQIIRKWAQTFVALCATD [H13W], the protein stability index worked out at 2.25.

Turning to PEAEENKQIIRKTAQTFVALCATD [H13T], the protein stability index was 3.07.

Consider PEAEENKQIIRKDAQTFVALCATD [H13D], for which the protein stability index stood at 4.02.

Take PEAEENKQIIRKKAQTFVALCATD [H13K]: the protein stability index amounted to 2.02.

As for PEAEENKQIIRKHMQTFVALCATD [A14M], the protein stability index was 2.97.

Consider PEAEENKQIIRKHEQTFVALCATD [A14E], for which the protein stability index worked out at 3.45.

For the variant PEAEENKQIIRKHIQTFVALCATD [A14I], the protein stability index worked out at 2.29.

Consider PEAEENKQIIRKHQQTFVALCATD [A14Q], for which the protein stability index was determined as 2.28.

For PEAEENKQIIRKHRQTFVALCATD [A14R], the protein stability index came out at 1.85.

For PEAEENKQIIRKHGQTFVALCATD [A14G], the protein stability index is 3.71.

Take PEAEENKQIIRKHTQTFVALCATD [A14T]: the protein stability index is 2.33.

For PEAEENKQIIRKHVQTFVALCATD [A14V], the protein stability index was 2.3.

For the variant PEAEENKQIIRKHNQTFVALCATD [A14N], the protein stability index came to 3.77.

For PEAEENKQIIRKHPQTFVALCATD [A14P], the protein stability index stood at 2.64.

Regarding PEAEENKQIIRKHYQTFVALCATD [A14Y], the protein stability index is 2.44.

With PEAEENKQIIRKHFQTFVALCATD [A14F], the protein stability index amounted to 2.79.

With PEAEENKQIIRKHKQTFVALCATD [A14K], the protein stability index amounted to 2.38.

Regarding PEAEENKQIIRKHDQTFVALCATD [A14D], the protein stability index came out at 3.71.

With PEAEENKQIIRKHCQTFVALCATD [A14C], the protein stability index stood at 2.72.

Regarding PEAEENKQIIRKHWQTFVALCATD [A14W], the protein stability index came out at 1.94.

In the case of PEAEENKQIIRKHSQTFVALCATD [A14S], the protein stability index worked out at 2.96.

PEAEENKQIIRKHHQTFVALCATD [A14H]: the protein stability index was 2.62.

Turning to PEAEENKQIIRKHLQTFVALCATD [A14L], the protein stability index amounted to 2.18.

As for PEAEENKQIIRRHAQTFVALCATD [K12R], the protein stability index was determined as 2.67.

On to PEAEENKQIIRWHAQTFVALCATD [K12W], for which the protein stability index stood at 2.34.

In the case of PEAEENKQIIRAHAQTFVALCATD [K12A], the protein stability index turned out to be 3.83.

Consider PEAEENKQIIRLHAQTFVALCATD [K12L], for which the protein stability index stood at 2.77.

Consider PEAEENKQIIRDHAQTFVALCATD [K12D], for which the protein stability index turned out to be 3.66.

Take PEAEENKQIIRCHAQTFVALCATD [K12C]: the protein stability index is 2.76.

For the variant PEAEENKQIIRHHAQTFVALCATD [K12H], the protein stability index was 3.47.

Consider PEAEENKQIIRGHAQTFVALCATD [K12G], for which the protein stability index stood at 3.65.

In the case of PEAEENKQIIREHAQTFVALCATD [K12E], the protein stability index was 4.58.

Take PEAEENKQIIRYHAQTFVALCATD [K12Y]: the protein stability index was 3.49.

Take PEAEENKQIIRMHAQTFVALCATD [K12M]: the protein stability index was found to be 2.73.

On to PEAEENKQIIRVHAQTFVALCATD [K12V], for which the protein stability index was found to be 3.13.

Consider PEAEENKQIIRFHAQTFVALCATD [K12F], for which the protein stability index is 2.51.

Take PEAEENKQIIRNHAQTFVALCATD [K12N]: the protein stability index was found to be 3.25.

Regarding PEAEENKQIIRPHAQTFVALCATD [K12P], the protein stability index amounted to 4.03.

For the variant PEAEENKQIIRTHAQTFVALCATD [K12T], the protein stability index was determined as 3.06.

In the case of PEAEENKQIIRQHAQTFVALCATD [K12Q], the protein stability index is 3.9.

For the variant PEAEENKQIIRSHAQTFVALCATD [K12S], the protein stability index was found to be 2.29.

Consider PEAEENKQIIRIHAQTFVALCATD [K12I], for which the protein stability index amounted to 2.39.

As for PEAEENKQIIRKHAQMFVALCATD [T16M], the protein stability index came out at 3.86.

Regarding PEAEENKQIIRKHAQIFVALCATD [T16I], the protein stability index was 3.35.

For PEAEENKQIIRKHAQWFVALCATD [T16W], the protein stability index turned out to be 2.85.

Regarding PEAEENKQIIRKHAQKFVALCATD [T16K], the protein stability index was 4.7.

Take PEAEENKQIIRKHAQLFVALCATD [T16L]: the protein stability index was found to be 3.51.

Regarding PEAEENKQIIRKHAQSFVALCATD [T16S], the protein stability index worked out at 3.2.

As to PEAEENKQIIRKHAQNFVALCATD [T16N], the protein stability index was found to be 4.61.

Consider PEAEENKQIIRKHAQVFVALCATD [T16V], for which the protein stability index is 3.85.

For PEAEENKQIIRKHAQRFVALCATD [T16R], the protein stability index worked out at 4.25.

Turning to PEAEENKQIIRKHAQDFVALCATD [T16D], the protein stability index is 4.81.

With PEAEENKQIIRKHAQFFVALCATD [T16F], the protein stability index was determined as 3.37.

With PEAEENKQIIRKHAQQFVALCATD [T16Q], the protein stability index was determined as 4.13.

For PEAEENKQIIRKHAQPFVALCATD [T16P], the protein stability index worked out at 4.62.

PEAEENKQIIRKHAQYFVALCATD [T16Y]: the protein stability index was 3.58.

With PEAEENKQIIRKHAQCFVALCATD [T16C], the protein stability index came out at 3.55.

Take PEAEENKQIIRKHAQAFVALCATD [T16A]: the protein stability index was determined as 4.71.

As to PEAEENKQIIRKHAQEFVALCATD [T16E], the protein stability index was found to be 5.27.

Turning to PEAEENKQIIRKHAQGFVALCATD [T16G], the protein stability index came to 3.88.
